{"source": "patent US7718391B2", "about": "“Assays for identifying modulators of rhomboid polypeptides” (Medical Research Council, priority 2001, dated 2010)", "key": {"[1]": {"system": "zebrafish RHBDL2", "experiment": "Zebrafish RHBDL2 knockout by antisense morpholino injection into embryos", "format": "in vivo, Zebrafish (Danio rerio)", "conditions": "injected into 1-4 cell embryos at 2-4 μM, assessed after 24 and 48 hours", "description": "Knockout of the zebrafish RHBDL2 was performed by standard procedures (McClintock J M, Kheirbek M A, Prince V E. 2002. Development. 129, 2339-2354.). A morpholino antisense oligonucleotide ([…]) SEQ.ID. 7 complementary to the region of the cDNA surrounding the start of translation was injected into 1-4 cell embryos at 2-4 μM. After 24 and 48 hours the phenotype was assessed and compared with wild-type embryos of equivalent stages. In situ hybridisation to RHBDL2 was performed by standard techniques.\nTo investigate the role of vertebrate Rhomboids, the zebrafish homologue of human RHBDL2 (sequenced from cDNA clone 2652120, GenBank accession number AW422344) was knocked out using the standard technology of antisense morpholino oligonucleotides (reviewed in Heasman J. Dev Biol. Mar. 15, 2002;243(2):209-14), which allows the rapid removal of a gene function. Zebrafish embryos are a common model system as their embryonic development is easily observed."}, "[2]": {"target": "T1, Rhomboid-1 (Drosophila melanogaster, UniProt P20350)", "T1 construct": "When co-expressed with Star and full-length Rhomboid-1 in the COS cell Spitz cleavage assay; expressed in transfected cells; host or cells: COS cells, pcDNA3.1 constructs, transient transfection", "T1 sequence (P20350 1-355)": "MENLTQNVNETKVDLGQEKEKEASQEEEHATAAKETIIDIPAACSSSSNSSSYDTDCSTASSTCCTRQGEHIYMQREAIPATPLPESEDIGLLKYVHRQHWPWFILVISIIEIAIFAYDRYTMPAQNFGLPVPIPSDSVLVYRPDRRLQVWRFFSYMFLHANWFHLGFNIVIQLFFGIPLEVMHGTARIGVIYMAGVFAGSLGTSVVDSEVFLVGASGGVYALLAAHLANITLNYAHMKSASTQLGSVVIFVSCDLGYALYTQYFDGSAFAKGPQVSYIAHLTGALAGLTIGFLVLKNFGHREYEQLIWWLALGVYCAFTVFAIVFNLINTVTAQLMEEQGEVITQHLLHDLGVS", "experiment": "Rhomboid-1 and Star dependent cleavage of GFP-Spitz in transfected COS cells (western blot of medium)", "format": "cell-based", "conditions": "co-expressed with Star and full-length Rhomboid-1 in COS cells", "description": "COS cells were grown in DMEM medium (supplemented with 10% foetal calf serum), and transfected with FuGENE 6 Transfection Reagent (Roche). Cells were transfected in 35 mm culture wells with 25-250 ng of each construct and empty plasmid to bring the total DNA to 1 μg per well. 24-30 hours post-transfection the medium was replaced with serum-free medium; this was harvested 24 hours later and cells were lysed in SDS-sample buffer. GFP was detected in conditioned medium and cell lysates by western blot with a rabbit polyclonal antibody. For some experiments the serum-free medium was supplemented with the metalloprotease inhibitor batimastat (British Biotech) or ilomostat (Calbiochem). Cells were transfected as standard with 1 ng of Rhomboid-1 DNA (in 1 μg total DNA) and were then incubated in serum-free medium for 24 hours. The medium was then replaced with 0.5 ml serum free medium containing protease inhibitor at the indicated concentration and incubated for 1 hour. After 1 hour, the medium was collected, cleared by centrifugation, dialysed overnight against several changes of water and lyophilised. The resulting pellets were re-suspended in SDS sample buffer, boiled and analysed by Western blot. Transfections with a secreted form of Spitz were used in parallel to control for non-specific toxicity of the protease inhibitors or general inhibition of the secretory pathway. The proteolytic cleavage assay was recapitulated in a mammalian tissue culture system. Spitz was tagged with GFP near its N-terminus and transiently expressed in COS cells, in the presence or absence of Star and/or Rhomboid-1. The accumulation of the soluble extracellular fragment of GFP-Spitz in the cell medium was then measured by western blot."}, "[3]": {"system": "release of TGFα", "experiment": "Release/secretion of TGFα from transfected COS cells", "format": "cell-based, human", "conditions": "expression of truncated Rhomboid-1, compared with control", "description": "COS cells were grown in DMEM medium (supplemented with 10% foetal calf serum), and transfected with FuGENE 6 Transfection Reagent (Roche). Cells were transfected in 35 mm culture wells with 25-250 ng of each construct and empty plasmid to bring the total DNA to 1 μg per well. 24-30 hours post-transfection the medium was replaced with serum-free medium; this was harvested 24 hours later and cells were lysed in SDS-sample buffer. GFP was detected in conditioned medium and cell lysates by western blot with a rabbit polyclonal antibody. For some experiments the serum-free medium was supplemented with the metalloprotease inhibitor batimastat (British Biotech) or ilomostat (Calbiochem).\nSpitz, Star and Rhomboid-1 are the only Drosophila proteins present in the transfected mammalian cells. A possible hypothesis is that these proteins are able to recruit a mammalian protease to a processing complex. If this were the case, the principle candidate for the putative mammalian protease would be a member of the ADAM family of metalloproteases. These proteases have broad specificity and are responsible for the release of a large number of mammalian growth factors, including the Spitz homolog, TGFα. The possible involvement of these proteases was tested with the potent metalloprotease inhibitor batimastat (British Biotechnology) at 1 μM and 10 μM. […]"}}}
{"molecule": "anti-sense morpholino oligo TCTTGCTCTTCGGTGTCATTATCGC: morpholino antisense oligonucleotide complementary to the region of zebrafish RHBDL2 cDNA surrounding the start of translation (all phosphorodiamidate morpholino (PMO))", "values": [{"measurement": "embryo phenotype after knockout", "setting": "[1]", "value": "specific defects in the brain, the otic placode and the tail"}]}
{"molecule": "Rho-1-NTM1: residues 1 to 149 of Rhomboid-1: N-terminal cytoplasmic domain plus first TMD and part of first extracellular loop; dominant negative (protein, UniProt P20350 1-149, looked up, fragment) MENLTQNVNETKVDLGQEKEKEASQEEEHATAAKETIIDIPAACSSSSNSSSYDTDCSTASSTCCTRQGEHIYMQREAIPATPLPESEDIGLLKYVHRQHWPWFILVISIIEIAIFAYDRYTMPAQNFGLPVPIPSDSVLVYRPDRRLQ", "values": [{"measurement": "ability of wild-type Rhomboid-1 to promote GFP-Spitz cleavage", "setting": "[2]", "value": "inhibited"}, {"measurement": "TGFα synthesis or secretion", "setting": "[3]", "value": "did not interfere"}]}
